Experimental data: patent US7041458B2, “Methods and reagents for determining protein S” (priority 1996, dated 2006)

Key:
[1] = target: T1, free protein S (Homo sapiens, UniProt P07225); assay: Addition of C4BP to human plasma, free protein S measured with the assay of Example 2; format: binding; conditions: two-fold molar excess of C4BP compared to free protein S, 1 hour at 37° C.
T1 construct: from tissue; host or cells: human plasma
T1 sequence (P07225 42-676): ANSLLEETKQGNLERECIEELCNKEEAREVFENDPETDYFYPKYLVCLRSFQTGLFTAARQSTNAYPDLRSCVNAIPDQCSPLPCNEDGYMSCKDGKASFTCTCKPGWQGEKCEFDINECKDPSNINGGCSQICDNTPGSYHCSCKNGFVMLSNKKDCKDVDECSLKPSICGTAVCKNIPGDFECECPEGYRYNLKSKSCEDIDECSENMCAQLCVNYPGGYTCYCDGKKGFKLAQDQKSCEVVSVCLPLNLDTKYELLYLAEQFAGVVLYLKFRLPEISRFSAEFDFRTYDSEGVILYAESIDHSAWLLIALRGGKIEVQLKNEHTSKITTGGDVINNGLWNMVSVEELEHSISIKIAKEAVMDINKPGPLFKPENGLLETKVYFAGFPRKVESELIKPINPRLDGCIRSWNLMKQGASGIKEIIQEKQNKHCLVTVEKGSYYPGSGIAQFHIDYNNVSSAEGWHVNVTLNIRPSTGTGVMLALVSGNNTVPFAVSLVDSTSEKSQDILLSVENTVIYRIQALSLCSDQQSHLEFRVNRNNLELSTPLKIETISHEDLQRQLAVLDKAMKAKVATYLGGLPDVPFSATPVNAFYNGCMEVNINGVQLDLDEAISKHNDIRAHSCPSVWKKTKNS
Method: Assay procedure: Aliquots (50 μl) of the sample to be analyzed (for patient plasma usually 1:100 dilutions of plasma, the buffer for dilution being TBS containing 1% BSA, 2 mM calciumchloride and 1 mM benzamidine) were added to the wells of C4BP-microtiter plates and incubated at room temperature for 30 minutes. The wells were then washed with TBS-wash-ing buffer and biotinylated monoclonal antibody HPS54 (diluted 1:1000, corresponding to about 0.1–1 μg/ml, in TBS containing 1% BSA, 2 mM calcium chloride) was added. Unbound HPS54 was washed away with 3×TBS-washing buffer. Peroxidase-conjugated streptavidine (from Dakopatts AS and prepared according to the manufacturers instructions and diluted 1:2500) (50 μl/well) was added and incubated 15 minutes at room temperature before unbound complexes were washed away with 3×TBS-washing buffer. Aliquots (100 μl/well) of the peroxidase substrate OPD (1,2-ortho-phenylene diamine in the form of 2 mg tablets from Dakopatts A/S) at 1.5 mg/ml in 0.1 M citric acid-phosphate buffer, pH 5.0 (prepared according to instructions from Dakopatts) was added together with H2O2 (0.015%). After exactly 5 minutes, the reaction was stopped by 100 μl/well of 1 M H2SO4 and the absorbance was measured at 490 nm.
To test the specificity of the assay for free protein S, two different experiments were performed. […]

[2] = target: T2, protein S (Homo sapiens, UniProt P07225); assay: Binding of protein S to the binding site on C4BPβ in the presence of physiological calcium
T2 sequence (P07225 42-676): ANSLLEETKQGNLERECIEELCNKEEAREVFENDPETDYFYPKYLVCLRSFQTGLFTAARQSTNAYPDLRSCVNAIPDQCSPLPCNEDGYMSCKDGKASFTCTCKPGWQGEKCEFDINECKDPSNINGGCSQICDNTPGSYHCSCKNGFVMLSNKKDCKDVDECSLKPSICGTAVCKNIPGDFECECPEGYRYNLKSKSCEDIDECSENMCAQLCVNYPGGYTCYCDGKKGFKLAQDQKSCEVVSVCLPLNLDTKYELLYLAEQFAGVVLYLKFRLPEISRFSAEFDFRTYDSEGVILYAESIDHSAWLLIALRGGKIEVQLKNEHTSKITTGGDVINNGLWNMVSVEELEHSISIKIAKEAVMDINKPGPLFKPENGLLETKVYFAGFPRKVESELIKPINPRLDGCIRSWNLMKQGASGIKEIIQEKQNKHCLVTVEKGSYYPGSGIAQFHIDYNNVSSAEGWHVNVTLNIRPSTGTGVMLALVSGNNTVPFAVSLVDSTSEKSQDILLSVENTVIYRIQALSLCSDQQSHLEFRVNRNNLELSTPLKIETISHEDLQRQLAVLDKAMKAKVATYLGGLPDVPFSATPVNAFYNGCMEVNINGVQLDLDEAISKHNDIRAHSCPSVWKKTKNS
Method: Even though it is possible to design C4BP-like molecules which could be very efficient as catching ligands in assays for free protein S, suitable embodiments of the invention are based on use of the entire C4BP molecule or, rather, C4BP species comprising the β-chain, i.e. C4BPβ, as ligands in such assays. Since the binding site on C4BPβ binds protein S with very high affinity (KD=0.1 nM) in the presence of physiological calcium concentrations, the association rate constant in the presence of calcium ions being high (almost 10^5 M^−1 s−^1) and the dissociation rate constant being low (approximately 5×10^−4 s−^1), C4BPβ (containing an unoccupied protein S binding site on the β-chain) is a highly specific and efficient ligand for free protein S and is able to specifically bind to free protein S in a solution containing both free protein S and PS:C4BP complexes.

B1: C4BPβ: species of C4b-binding protein containing the protein S binding β-chain, isolated from human plasma (protein)
chain 1: NCGPPPTLSFAAPMDITLTETRFKTGTTLKYTCLPGYVRSHSTQTLTCNSDGEWVYNTFCIYKRCRHPGELRNGQVEIKTDLSFGSQIEFSCSEGFFLIGSTTSRCEVQDRGVGWSHPLPQCEIVKCKPPPDIRNGRHSGEENFYAYGFSVTYSCDPRFSLLGHASISCTVENETIGVWRPSPPTCEKITCRKPDVSHGEMVSGFGPIYNYKDTIVFKCQKGFVLRGSSVIHCDADSKWNPSPPACEPNSCINLPDIPHASWETYPRPTKEDVYVVGTVLRYRCHPGYKPTTDEPTTVICQKNLRWTPYQGCEALCCPEPKLNNGEITQHRKSRPANHCVYFYGDEISFSCHETSRFSAICQGDGTWSPRTPSCGDICNFPPKIAHGHYKQSSSYSFFKEEIIYECDKGYILVGQAKLSCSYSHWSAPAPQCKALCRKPELVNGRLSVDKDQYVEPENVTIQCDSGYGVVGPQSITCSGNRTWYPEVPKCEWETPEGCEQVLTGKRLMQCLPNPEDVKMALEVYKLSLEIEQLELQRDSARQSTLDKEL
chain 2: SDAEHCPELPPVDNSIFVAKEVEGQILGTYVCIKGYHLVGKKTLFCNASKEWDNTTTECRLGHCPDPVLVNGEFSSSGPVNVSDKITFMCNDHYILKGSNRSQCLEDHTWAPPFPICKSRDCDPPGNPVHGYFEGNNFTLGSTISYYCEDRYYLVGVQEQQCVDGEWSSALPVCKLIQEAPKPECEKALLAFQESKNLCEAMENFMQQLKESGMTMEELKYSLELKKAELKAKLL
Question: With B1 as the molecule, how does the “drop in free protein S” value [1] read?
Answer: Its value is 90%.

Question: What about the association rate constant ([2]; presence of calcium ions) of the same molecule?
Answer: Its association rate constant is ~10^5 M^−1 s−^1.

Question: What about the dissociation rate constant ([2]; presence of calcium ions) of the same molecule?
Answer: Its dissociation rate constant is “approximately 5×10^−4 s−^1”.

Question: And the Kd ([2]; presence of physiological calcium concentrations)?
Answer: Its Kd is 0.1 nM.
